Assay results: article PMC7326950, “Hypoxanthine-Guanine Phosphoribosyltransferase/adenylate Kinase From Zobellia galactanivorans: A Bifunctional Catalyst for the Synthesis of Nucleoside-5′-Mono-, Di- and Triphosphates” (Frontiers in Bioengineering and Biotechnology, 2020)

What was measured:
ZgHGPRT/AMPK = molecular target: T1, ZgHGPRT/AMPK (Zobellia galactanivorans, UniProt G0LC40); assay: steady-state kinetics, HPLC of IMP formation, non-linear regression; type: biochemical; conditions: HGPRT domain; apparent substrate inhibition at high Hyp; PRPP fixed at 5 mM; varied Hyp 0.5–17.2 mM; Mg2+
T1 construct: gene adkA; homodimer
Excerpt: (§1) steady-state kinetics, HPLC of IMP formation, non-linear regression on ZgHGPRT/AMPK

[1] = substrate: Nc1ncnc2c1ncn2[C@@H]1O[C@H](COP(=O)(O)OP(=O)(O)OP(=O)(O)O)[C@@H](O)[C@H]1O; assay: steady-state kinetics, HPLC of ADP formation, non-linear regression; type: biochemical, Zobellia galactanivorans; conditions: AMPK domain; apparent; AMP fixed at 3.2 mM; varied ATP 0.5–10 mM; Mg2+
Excerpt: steady-state kinetics, HPLC of ADP formation, non-linear regression on ZgHGPRT/AMPK

[2] = molecular target: the molecule itself; assay: AUC; sedimentation velocity, 20 mM Tris-HCl pH 8, 20°C, 50,000 x g, profiles at 292 nm, c(s) by SEDFIT; protein 0.4 mg/ml
[3] = substrate: O=P(O)(O)OC[C@H]1O[C@H](OP(=O)(O)OP(=O)(O)O)[C@H](O)[C@@H]1O; assay: steady-state kinetics, HPLC of IMP formation, non-linear regression; type: biochemical, Zobellia galactanivorans; conditions: HGPRT domain; apparent; Hyp fixed at 5 mM; varied PRPP 0.5–17.2 mM; Mg2+
Excerpt: as §1

[4] = substrate: O=c1[nH]cnc2nc[nH]c12; assay: as above; type: biochemical, Zobellia galactanivorans; conditions: HGPRT domain; apparent; PRPP fixed at 5 mM; varied Hyp 0.5–17.2 mM; Mg2+
Excerpt: as §1

purified protein = substrate: Nc1ncnc2c1ncn2[C@@H]1O[C@H](COP(=O)(O)O)[C@@H](O)[C@H]1O; assay: purified protein; conditions: AMPK domain; apparent; ATP fixed at 3.2 mM; varied AMP 0.5–10 mM; Mg2+

| Molecule | Value with variable substrate / Hyp^a (ZgHGPRT/AMPK) | Km [1] | kcat [1] | kcat/Km [1] | stoichiometry N [2] | Km [3] | kcat [3] | kcat/Km [3] | Km [4] | kcat [4] | kcat/Km [4] | Km (purified protein) | kcat (purified protein) | kcat/Km (purified protein) |
| --- | --- | --- | --- | --- | --- | --- | --- | --- | --- | --- | --- | --- | --- | --- |
| O=c1[nH]cnc2nc[nH]c12 [compound 1, hypoxanthine] | 11.12 ± 1.02 mM | – | – | – | – | – | – | – | – | – | – | – | – | – |
| hypoxanthine-guanine phosphoribosyltransferase (HGPRT)/adenylate kinase (AMPK) from Zobellia galactanivorans (enzyme, UniProt G0LC40 1-368, looked up, gene from GenScript cloned NheI-BamHI into pET28b(+); The vector encodes a thrombin cleavage site between the His6 tag and the enzyme; no cleavage is described, and the measured mass is compared with that of the His6-tagged protein (43.77 kDa); also called ZgHGPRT/AMPK; HGPRT/AMPK; source: E. coli BL21(DE3), purified (HisTrap FF, Superdex 200); not shown: His6, N-terminal, kept) MIKLHDKHFKPFLSEAQIKAAVKKVAEQVAADYKDETPIFVGVLNGAFMFISDFLKEYQYPCEVSFVKLSSYQGLTSTGIVETLLDVSENIEGRSVIILEDIIDTGRTLKKLVHLFSKANVKEFRVASLFYKSEVYNGEYTIDYVGIDIPDKFIVGYGLDYNELGRNLREVYQLNQKHMINLVLFGKPGAGKGTQAEFLKDKYNLKHISTGDLFRFNMKNDTELGKLAKSYIDRGDLVPDEVTIKMLQDAVEKNPEASGFIFDGFPRTVAQAEALDKFLATKDMKIDATIALEANDEVLIQRLLERGKVSGRSDDQDESKIRNRFDEYNEKTAPLKDFYENQGKFHSVNGIGAIDEITHRLGKVIEEL | – | 0.77 ± 0.04 mM | 0.07 ± 0.003 s⁻¹ | 100 M⁻¹ s⁻¹ | 2 | 6.77 ± 0.41 mM | 2.82 ± 0.21 s⁻¹ | 420 M⁻¹ s⁻¹ | 1.01 ± 0.05 mM | 1.11 ± 0.06 s⁻¹ | 1100 M⁻¹ s⁻¹ | 8.02 ± 0.40 mM | 0.16 s⁻¹ | 20 M⁻¹ s⁻¹ |
